Measurements published in patent US20110262929A1 (FORERUNNER PHARMA RESEARCH, published 2011).

T1: C-terminal V5 tagged mouse HS6ST2 (mHS6ST2_ctV5), expressed in CHO DG44 cells (mouse, UniProt Q80UW0 148-612)
T1 construct: also called mHS6ST2_ctV5_CHO; mouse HS6ST2 transcript variant 2
T1 sequence: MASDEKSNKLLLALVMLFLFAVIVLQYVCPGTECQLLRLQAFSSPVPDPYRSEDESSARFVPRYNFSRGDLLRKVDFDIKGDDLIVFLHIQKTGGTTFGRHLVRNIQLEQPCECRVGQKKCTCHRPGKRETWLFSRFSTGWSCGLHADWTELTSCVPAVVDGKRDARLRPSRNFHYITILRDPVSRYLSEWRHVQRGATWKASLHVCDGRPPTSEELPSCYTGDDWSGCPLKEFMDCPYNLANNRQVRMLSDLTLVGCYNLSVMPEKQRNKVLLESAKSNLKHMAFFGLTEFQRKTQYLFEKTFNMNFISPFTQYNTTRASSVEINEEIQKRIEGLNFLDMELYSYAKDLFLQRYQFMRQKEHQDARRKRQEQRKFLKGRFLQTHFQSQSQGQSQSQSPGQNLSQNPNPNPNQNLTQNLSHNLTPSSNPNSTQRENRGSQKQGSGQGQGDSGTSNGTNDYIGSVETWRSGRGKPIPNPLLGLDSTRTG

T2: GST_HS6ST2_C2 (human, UniProt Q96MM7 525-605)
T2 construct: Expressed in E. coli BL21 (DE3); whole cell lysate blotted after SDS-PAGE; also called GST fusion of amino acids 379-459 of HS6ST2_N-short; not shown: N-terminal glutathione S-transferase (GST) of vector pGEX-6P-1, with the vector's linker
T2 sequence: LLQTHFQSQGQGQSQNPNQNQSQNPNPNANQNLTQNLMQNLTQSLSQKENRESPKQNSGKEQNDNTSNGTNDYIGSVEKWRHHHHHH

T3: C-terminal V5 tagged HS6ST2_N-long (HS6ST2_N-long_ctV5), expressed in CHO DG44 cells (human, UniProt Q96MM7 1-605)
T3 construct: On cells in flow cytometry; also called Q96MM7-1
T3 sequence: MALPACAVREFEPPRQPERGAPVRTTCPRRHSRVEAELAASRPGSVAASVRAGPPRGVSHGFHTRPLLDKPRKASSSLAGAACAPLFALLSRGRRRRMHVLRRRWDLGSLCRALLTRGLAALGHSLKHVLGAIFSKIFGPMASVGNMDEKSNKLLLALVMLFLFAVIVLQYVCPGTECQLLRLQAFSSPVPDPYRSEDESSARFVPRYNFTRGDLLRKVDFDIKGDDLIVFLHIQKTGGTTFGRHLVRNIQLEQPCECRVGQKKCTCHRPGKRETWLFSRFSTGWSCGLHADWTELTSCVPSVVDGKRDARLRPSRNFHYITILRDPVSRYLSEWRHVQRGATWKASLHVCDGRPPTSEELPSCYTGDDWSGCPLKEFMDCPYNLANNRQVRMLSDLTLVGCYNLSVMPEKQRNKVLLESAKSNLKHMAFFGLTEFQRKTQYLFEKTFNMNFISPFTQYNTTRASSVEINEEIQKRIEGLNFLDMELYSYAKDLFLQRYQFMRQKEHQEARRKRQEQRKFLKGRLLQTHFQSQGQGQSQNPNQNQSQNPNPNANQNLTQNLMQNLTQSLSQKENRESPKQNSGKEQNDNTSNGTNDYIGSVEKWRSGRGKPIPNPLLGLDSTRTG

T4: C-terminal V5 tagged HS6ST2_N-short (HS6ST2_N-short_ctV5), expressed in CHO DG44 cells (human, UniProt Q96MM7 147-605)
T4 construct: also called Q96MM7-2
T4 sequence: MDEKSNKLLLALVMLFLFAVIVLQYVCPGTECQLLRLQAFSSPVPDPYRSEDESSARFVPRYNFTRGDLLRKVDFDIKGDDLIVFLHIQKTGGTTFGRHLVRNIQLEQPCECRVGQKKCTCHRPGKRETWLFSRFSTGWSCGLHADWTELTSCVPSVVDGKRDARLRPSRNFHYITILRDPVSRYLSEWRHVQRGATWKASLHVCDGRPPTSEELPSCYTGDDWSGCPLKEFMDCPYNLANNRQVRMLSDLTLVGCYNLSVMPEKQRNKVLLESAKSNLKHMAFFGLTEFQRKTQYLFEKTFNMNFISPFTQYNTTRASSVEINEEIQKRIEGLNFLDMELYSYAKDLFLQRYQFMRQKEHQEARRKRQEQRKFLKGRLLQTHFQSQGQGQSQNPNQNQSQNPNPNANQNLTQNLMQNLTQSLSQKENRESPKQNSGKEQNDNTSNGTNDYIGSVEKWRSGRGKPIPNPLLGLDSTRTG

T5: GST_HS6ST2_N (human, UniProt Q96MM7 170-321)
T5 construct: Expressed in E. coli BL21 (DE3); whole cell lysate blotted after SDS-PAGE; also called GST fusion of amino acids 24-175 of HS6ST2_N-short; not shown: N-terminal glutathione S-transferase (GST) of vector pGEX-6P-1, with the vector's linker
T5 sequence: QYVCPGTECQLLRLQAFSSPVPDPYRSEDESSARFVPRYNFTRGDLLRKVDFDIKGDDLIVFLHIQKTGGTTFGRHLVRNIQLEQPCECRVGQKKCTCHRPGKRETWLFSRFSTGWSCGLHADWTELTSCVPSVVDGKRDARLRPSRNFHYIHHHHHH

B1: anti-HS6ST2 antibody A10 (antibody, mouse IgG1, V domains shown)
VH: EVQLQQSGAELVKPGASVKLSCTASGFNIKDTYMHWVKQRPEQGLEWIGRIDPANGNTKFDPKFQGKASITADTSSNTAYLQLSSLTSEDTAVYYCATNLLRAMDYWGQGTSVTVSS
VL: DIVMSQSPSSLTVSVGEKVTMSCKSSQSLLYSSNQKNYLAWCQQIPGQSPKLLIYWASTRESGVPDRFAGSGSGTDFTLTISSVKAEDLAVYYCLQYFTYPFTFGSGTKLEIK
notes: also called clone A10
B2: anti-HS6ST2 antibody B6 (antibody, mouse IgG1, V domains shown)
VH: EVQLQQSGAELVRSGASVKLSCTASGFNIKDYYMHWVKQRPEQGLEWIGWIDPDNGDTEYAPKFQGKATMTADTSSNTAYLQLSSLTSEDTAVYYCNAGNGNYWFAYWGQGTLVTVSA
VL: DVVMTQTPLSLPVSLGDQASISCRSSQSLVHSNGNTYLHWNLQKPGQSPKLLIYKVSNRFSGVPDRFSGSGSGTDFTLKISRVEAEDLGVYFCSQTTLVPYTFGGGTKLEIK
notes: also called clone B6
B3: anti-HS6ST2 antibody C10 (antibody, mouse IgG1, V domains shown)
VH: QVQLHQPGSVLVRPGASVKLSCKASGYTFTDSWMHWAKQRPGQGLEWIGEIRPNSGKTNYNEKFKGKATLTVDTSSSTAYVDLRSLTSEDSAVYYCVRTYMSHFDYWGQGTTLTVSS
VL: DIVMTQAAFSNPVTLGTSASISCRSSKSLLHSNGITYLYWYLQKPGQSPQLLIYQMSNLAPGVPDRVSSSGSGSDFTLRISRVEAEDVGVYYCAQNLELPFTFGSGTRLEIK
notes: also called clone C10
B4: anti-HS6ST2 antibody B5 (antibody, mouse IgG1, V domains shown)
VH: EVKLVESGGGLVKSGGSLKLSCVVSGFTFSRYAMSWVRQTPEKRLEWVASIVSGDKTYYPDSVKGRFTISRDNARNILYLQMSSLRSEDTAMYYCTRELGYFDVWGAGTTVTVSS
VL: DVVMTQTPLSLPVSLGDQASISCRSSQSLVHSNGNTYLHWYLQKPGQSPKLLIYKVSNRFSGVPDRFSGSGSGTDFTLKISRVEAEDLGVYFCSQSIHVPPLTFGAGTKLELK
notes: also called clone B5; B5-biotin

Tests used:
[1] = target: T1, C-terminal V5 tagged mouse HS6ST2 …; assay: flow cytometry on mHS6ST2_ctV5_CHO cells
Procedure: (§1) Binding of the anti-HS6ST2 antibodies prepared in Example 2 to mHS6ST2 was evaluated by flow cytometry. The cells used were mHS6ST2_ctV5_CHO, HS6ST2_N-short_ctV5_CHO as a positive control, and the CHO DG44 cell line as a negative control.
(§2) Each anti-HS6ST2 antibody or mouse IgG1 (mIgG1, BD Biosciences Pharmingen) as a negative control was added to a final concentration of 2 μg/mL into 96-well U-bottom plates (Becton Dickinson) containing 5×10⁴ cells suspended in PBS (FACS buffer) supplemented with 0.5% bovine serum albumin and 0.1% NaN₃. After reaction on ice for 1 hour, the cells were washed with FACS buffer. Then, an FITC-labeled anti-mouse antibody (Goat F(ab′)₂ Fragment Anti-mouse IgG (H+L)-FITC, Beckman Coulter) was added as a secondary antibody, and the mixture was reacted on ice for 1 hour. The cells were washed with FACS buffer, and then suspended in FACS buffer containing 10 μg/mL propidium iodide (PI) (Sigma) and assayed by a flow cytometer (FACS Calibur, Becton Dickinson). The assay data were analyzed by CELLQuest software (Becton Dickinson), and the geo-mean of FITC fluorescent intensity was calculated for the PI-negative population of viable cells.

GST_HS6ST2_C2 = target: T2, GST_HS6ST2_C2; assay: Western blot of E. coli whole cell lysate, antibody 10 µg/mL
Procedure: (§3) GST_HS6ST2_N, GST_HS6ST2_mid, GST_HS6ST2_C, GST_HS6ST2_C1 and GST_HS6ST2_C2 were expressed in BL21 (DE3) Competent Cells (Takara Bio), and the whole cell lysates were resolved by SDS-PAGE electrophoresis and then transferred to PVDF membranes (Immobilon-P, Millipore) and Western blotted with the anti-HS6ST2 antibodies. The anti-HS6ST2 antibodies were used at 10 μg/mL, while the secondary antibody (HRP-anti mIgG, GE Healthcare) was used as a 3000-fold dilution, and blots were detected with ECL Western Blotting Detection Reagents (GE Healthcare). As a result, the anti-HS6ST2 antibodies A1, A10, B5, B6 and C8 bound to GST_HS6ST2_C2, A6 bound to GST_HS6ST2_C1, and C10 bound to GST_HS6ST2_N.

[2] = target: T3, C-terminal V5 tagged HS6ST2_N-long …; assay: flow cytometry on HS6ST2_N-long_ctV5_CHO cells
Procedure: as §2
Binding activity of the anti-HS6ST2 antibodies prepared in Example 2 to HS6ST2_N-long was evaluated by flow cytometry. The cells used were HS6ST2_N-long_ctV5_CHO cells and HS6ST2_N-short_{—} ctV5_CHO cells as a positive control, and evaluated in the same manner as in Example 3. The primary antibodies were used at a concentration of 10 μg/mL.

[3] = target: T4, C-terminal V5 tagged HS6ST2_N-short …; assay: flow cytometry on HS6ST2_N-short_ctV5_CHO cells, antibody 2 µg/mL
Procedure: as §1, §2

[4] = target: T1, C-terminal V5 tagged mouse HS6ST2 …; assay: flow cytometry on mHS6ST2_ctV5_CHO cells, antibody 2 µg/mL
Procedure: as §1, §2

GST_HS6ST2_N = target: T5, GST_HS6ST2_N; assay: Western blot of E. coli whole cell lysate, antibody 10 µg/mL
Procedure: as §3

Binder	binding result [1]	binding result (GST_HS6ST2_C2)	binding result [2]	binding result [3]	binding result [4]	binding result (GST_HS6ST2_N)
B1	no binding (tested: 2 µg/mL)	binds	binds	binds		
B2	no binding (tested: 2 µg/mL)	binds	binds	binds		
B3			binds	binds	binds	binds
B4	no binding (tested: 2 µg/mL)	binds	binds	binds		
